Reference: IntAct's records for PubMed 23856421

B1: Dolichol-phosphate mannosyltransferase subunit 1 (Homo sapiens), O60762 (parent)
chain: MASLEVSRSPRRSRRELEVRSPRQNKYSVLLPTYNERENLPLIVWLLVKSFSESGINYEIIIIDDGSPDGTRDVAEQLEKIYGSDRILLRPREKKLGLGTAYIHGMKHATGNYIIIMDADLSHHPKFIPEFIRKQKEGNFDIVSGTRYKGNGGVYGWDLKRKIISRGANFLTQILLRPGASDLTGSFRLYRKEVLEKLIEKCVSKGYVFQMEMIVRARQLNYTIGEVPISFVDRVYGESKLGGNEIVSFLKGLLTLFATT
partner: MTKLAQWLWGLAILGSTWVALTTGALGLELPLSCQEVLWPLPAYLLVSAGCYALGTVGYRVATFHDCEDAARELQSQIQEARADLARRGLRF

Variants of: B1
Details: with dpm3_human DPM3, Q9P2X0

Row | Variant | effect of a mutation on the interaction
1 | G152V | disrupting interaction
